Binding result and Kd data for 6 molecules are collected here from patent publication US20230125788, “TDP-43 MODULATING AGENTS AND USES THEREOF” (Washington University, published 2023).

The target of data set [1] is T1, TDP-43 WT (UniProt Q13148 Q13148:1-414). In words: EMSA; at least three TDP-43 bound per oligo; 150 mM NaCl, 2 mM MgCl2, Tris pH 8. The note with it: tags: N-terminal His6-SUMO (Smt3), E. coli BL21(DE3), pET28b(+)-SUMO-TDP43; label: 5' 700 nm IR dye. Background: Mobility shift assays separate free from complexed probe on a gel.
Data set [2] concerns the target T1, TDP-43 WT. The experiment in a line: FP; higher Kd than modified; values only in figure. The note with it: tags: N-terminal His6-SUMO (Smt3), E. coli BL21(DE3), pET28b(+)-SUMO-TDP43.
The target of data set [3] is T1, TDP-43 WT. The experiment in a line: FP; Kd dramatically lower than unmodified; values only in figure. The note with it: tags: N-terminal His6-SUMO (Smt3), E. coli BL21(DE3), pET28b(+)-SUMO-TDP43.
For data set [4], the target named is T1, TDP-43 WT. The experiment in a line: FP; apparent; 300 mM NaCl, 10 mM Tris pH 8.0. The note with it: tags: N-terminal His6-SUMO (Smt3), E. coli BL21(DE3), pET28b(+)-SUMO-TDP43; label: FITC.
Procedure: Each point is the average of >3 technical and 3 biological replicates, respectively (SEM).
Recombinant TDP-43 wild-type (WT) and constructs previously purified were serially diluted in a 1:2 ratio (from 75 to 0 nM) into a 300 mM of NaCl, 10 mM of Tris (pH 8.0), 5% glycerol, 5% sucrose, 1 mM of TCEP buffer solution. A(GU)₆ RNA labeled with fluorescein isothiocyanate (FITC) from IDT was used at a final concentration of 0.6, 1.3, 2.5, and 5 nM. […] The anisotropy measurements were performed in a Biotek SYNERGY Neo2 (BioSPX) plate reader with excitation and emission wavelengths of 480 and 520 nm, respectively. To assess the binding curves, the data were fitted as previously described. Data analysis was performed using GraphPad Prism 5.
The next data set has as its target T2, TDP-43 deltaN (UniProt Q13148 Q13148:102-414).
T2 chain: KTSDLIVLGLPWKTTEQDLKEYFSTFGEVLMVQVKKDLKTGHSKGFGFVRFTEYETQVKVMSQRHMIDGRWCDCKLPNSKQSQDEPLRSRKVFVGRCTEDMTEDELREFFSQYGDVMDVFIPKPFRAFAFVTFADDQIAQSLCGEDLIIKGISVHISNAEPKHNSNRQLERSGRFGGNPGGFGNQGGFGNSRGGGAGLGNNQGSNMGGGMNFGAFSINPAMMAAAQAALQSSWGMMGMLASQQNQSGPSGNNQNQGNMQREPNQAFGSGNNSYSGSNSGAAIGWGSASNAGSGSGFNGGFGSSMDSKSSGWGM
The experiment in a line: FP; apparent; 300 mM NaCl. The note with it: tags: N-terminal His6-SUMO; label: FITC.

The target in a further data set is T3, TDP-43 RRM1-2 (UniProt Q13148 Q13148:102-269).
T3 chain: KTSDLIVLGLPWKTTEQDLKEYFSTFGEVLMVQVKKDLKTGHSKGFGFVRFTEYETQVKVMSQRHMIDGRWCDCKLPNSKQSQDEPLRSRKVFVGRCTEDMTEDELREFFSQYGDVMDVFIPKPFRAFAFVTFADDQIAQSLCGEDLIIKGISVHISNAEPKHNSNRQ
The experiment in a line: FP; apparent; 300 mM NaCl. The note with it: tags: N-terminal His6-SUMO; label: FITC.

T1 sequence (Q13148 whole entry, one chain of several): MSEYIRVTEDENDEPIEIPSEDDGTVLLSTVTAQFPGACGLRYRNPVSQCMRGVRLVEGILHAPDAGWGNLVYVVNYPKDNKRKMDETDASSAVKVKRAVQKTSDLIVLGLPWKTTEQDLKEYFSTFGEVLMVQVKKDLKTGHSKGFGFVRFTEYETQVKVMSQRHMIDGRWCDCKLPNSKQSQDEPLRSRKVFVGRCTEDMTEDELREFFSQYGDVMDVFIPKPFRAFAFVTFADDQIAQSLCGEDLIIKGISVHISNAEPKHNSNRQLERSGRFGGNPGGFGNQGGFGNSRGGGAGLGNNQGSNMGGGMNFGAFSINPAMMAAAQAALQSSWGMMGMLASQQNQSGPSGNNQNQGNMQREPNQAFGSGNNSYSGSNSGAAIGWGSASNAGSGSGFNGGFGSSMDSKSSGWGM

On to GAGAGAGCGCGUGCAGAGACUUGGUGGUGCAUAA (ssRNA) [CLIP34 IR700], for which, in the data set with TDP-43 WT [1], the binding result was “binds”. In the case of GAGAGAGCGCGUGCAGAGACUUGGUGGUGCAUAA (ssRNA) [CLIP34 unmodified], the binding result with TDP-43 WT [2] is recorded as “binds”.

For the molecule GAGAGAGCGCGTGCAGAGACTTGGTGGTGCATAA (XNA, 2'-OMe all; PS all linkages) [CLIP34 2OMe], in the data set with TDP-43 WT [3], the binding result is “binds”.

As to AGTGTGTGTGTGT (XNA, 2'-OMe all; PS all linkages) [A(GU)6 2OMe], the binding result with TDP-43 WT [3] is listed as “binds”. Turning to AGUGUGUGUGUGU (ssRNA, 2'-OMe and PS unless otherwise noted (general statement)) [A(GU)6-FITC], the Kd with TDP-43 WT [4] worked out at 0.8 nM; with TDP-43 deltaN it was 0.7 nM; in the data set with TDP-43 RRM1-2, 0.8 nM. Take AGUGUGUGUGUGU (ssRNA) [A(GU)6 unmodified]: in the data set with TDP-43 WT [2], the binding result was “binds”.
